Data reported in the supplement of paper PMC12042874.
± gives the uncertainty stated by the source.

Test: amyloid nucleation score (Sup35N fusion, yeast selection) (log enrichment); library NNK3; higher = more nucleation; inactive = no reads after selection
In short: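 For the nucleation score, DiMSum gave the log enrichment of output over input reads, centred on the mode score of non-aggregating sequences. Psi-negative yeast expressing Sup35N fused to peptides of 20 random codons were induced with 100 μM copper sulfate for 24 hours and grown 7 days at 30°C on medium lacking adenine and uracil. Input and output plasmid inserts were Illumina-sequenced, and sequences with under 100 input reads were excluded.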

Question: For NKVLFYVTYLFFIRNFLV, which amyloid nucleation score is on record?
Answer: inactive

Question: For NKWQRNSSNKFTCAQVPFFA, which amyloid nucleation score is on record?
Answer: inactive

Question: With NKYYVRSSFELVIVYA as the substance, how does the amyloid nucleation score read?
Answer: 0.142 ± 0.32

Question: For NLEGRKRLMILVFKCCELAI, which amyloid nucleation score is on record?
Answer: inactive

Question: With NLEYCSILFKRH as the substance, how does the amyloid nucleation score read?
Answer: 2 ± 0.095

Question: For NLFSRIVHSGLRMSTNCILI, which amyloid nucleation score is on record?
Answer: inactive

Question: For NLGKTLNTLYLVFTFRDVF, which amyloid nucleation score is on record?
Answer: inactive

Question: Which amyloid nucleation score does the source give for NLGTATLHLSYYMDPLTT here?
Answer: inactive

Question: For NLMCVNTVGLKYGPRELSNH, which amyloid nucleation score is on record?
Answer: inactive

Question: Which amyloid nucleation score does the source give for NLMCW here?
Answer: 0.958 ± 0.21

Question: Which amyloid nucleation score does the source give for NLNFDWTPVPSFSYHAPSKF here?
Answer: inactive

Question: Which amyloid nucleation score does the source give for NLRNDIYMTSICCE here?
Answer: inactive

Question: With NLRWSLIFMFGDCWGACGCG as the substance, how does the amyloid nucleation score read?
Answer: 0.476 ± 0.23

Question: With NLSLGQFIKAAVKFVHKPRK as the substance, how does the amyloid nucleation score read?
Answer: 1.34 ± 0.14

Question: For NLVRFLLKFMVKEYLRFTYI, which amyloid nucleation score is on record?
Answer: inactive

Question: Which amyloid nucleation score does the source give for NLVWFHIATEVIERNVGGGN here?
Answer: inactive

Question: For NLWLECNLESSQRSSLFTKL, which amyloid nucleation score is on record?
Answer: inactive

Question: With NMCYSVCVHYLLTAESKCHT as the substance, how does the amyloid nucleation score read?
Answer: inactive

Question: For NMFRFLMCSSTRHYVRIMTN, which amyloid nucleation score is on record?
Answer: inactive

Question: For NMIAVYLVLPRDSLGMIFTF, which amyloid nucleation score is on record?
Answer: inactive

Question: With NMIEVI as the substance, how does the amyloid nucleation score read?
Answer: inactive

Question: With NMILFISCEIPGRGVFGRCC as the substance, how does the amyloid nucleation score read?
Answer: 1.13 ± 0.11

Question: With NMQGLRFSRKCCEHRGFYIC as the substance, how does the amyloid nucleation score read?
Answer: inactive

Question: Which amyloid nucleation score does the source give for NMVPNCDLLMKSRLKVSNSA here?
Answer: inactive

Question: With NMYSCNSGGHKQLCLKVGDL as the substance, how does the amyloid nucleation score read?
Answer: inactive

Question: Which amyloid nucleation score does the source give for NNCYRMGFLCPTNRQTMEG here?
Answer: inactive

Question: With NNIIVVKTAS as the substance, how does the amyloid nucleation score read?
Answer: inactive

Question: For NNMLIGVRSVRAYKWFMHCV, which amyloid nucleation score is on record?
Answer: inactive

Question: For NNPSHGTRQNTYSALGWDHT, which amyloid nucleation score is on record?
Answer: inactive

Question: For NNRVLQRRPHRFHGANVTWS, which amyloid nucleation score is on record?
Answer: -0.677 ± 1.4

Question: With NNSFNYGNHGRSSVFNNLRC as the substance, how does the amyloid nucleation score read?
Answer: inactive

Question: For NNVTSIN, which amyloid nucleation score is on record?
Answer: -0.821 ± 1.1

Question: For NNVVHEVNFLELRLRVILGY, which amyloid nucleation score is on record?
Answer: inactive

Question: For NNYSPLFRTTAGYSSHFTRQ, which amyloid nucleation score is on record?
Answer: inactive

Question: For NPDAYKERTDLVWSVVVLLW, which amyloid nucleation score is on record?
Answer: inactive

Question: For NPFRGFLTIQCRPILRFPDK, which amyloid nucleation score is on record?
Answer: inactive

Question: With NPMGWGQLTGCFHYVAMFCS as the substance, how does the amyloid nucleation score read?
Answer: inactive

Question: With NPMTHYHMIHRSQGNCLLRR as the substance, how does the amyloid nucleation score read?
Answer: inactive

Question: For NPRVYNMIQPAYVNWSMDVT, which amyloid nucleation score is on record?
Answer: inactive

Question: For NQSGALVG, which amyloid nucleation score is on record?
Answer: inactive

Question: With NQWIAICNPSPFRVLTAHI as the substance, how does the amyloid nucleation score read?
Answer: inactive

Question: With NREHMAISSCRLVKHCFFWT as the substance, how does the amyloid nucleation score read?
Answer: inactive

Question: With NRPSMSRGVDTRLMSLHETL as the substance, how does the amyloid nucleation score read?
Answer: inactive

Question: For NRQSLGIRSYFC, which amyloid nucleation score is on record?
Answer: inactive

Question: For NRYYPVGNYCARTWQTFTFL, which amyloid nucleation score is on record?
Answer: inactive

Question: Which amyloid nucleation score does the source give for NSCLV here?
Answer: inactive

Question: With NSDFLSTVGYEGLLHTQGCA as the substance, how does the amyloid nucleation score read?
Answer: inactive

Question: For NSFLRVIVC, which amyloid nucleation score is on record?
Answer: inactive

Question: With NSGNSIAVAAALDKDTLQAG as the substance, how does the amyloid nucleation score read?
Answer: inactive

Question: Which amyloid nucleation score does the source give for NSIIGPTHHIVK here?
Answer: inactive

Question: For NSKGMI, which amyloid nucleation score is on record?
Answer: inactive

Question: Which amyloid nucleation score does the source give for NSLCSLVLTLIWWIKCPCDV here?
Answer: inactive

Question: For NSLPCLGYGMFM, which amyloid nucleation score is on record?
Answer: inactive

Question: With NSMRVKVRTLTVYISEFTVS as the substance, how does the amyloid nucleation score read?
Answer: inactive

Question: For NSNSYLGTNFILNQYVLCID, which amyloid nucleation score is on record?
Answer: inactive

Question: For NSSDVRQVLAIIRCGVV, which amyloid nucleation score is on record?
Answer: inactive

Question: With NSSTDFS as the substance, how does the amyloid nucleation score read?
Answer: inactive

Question: For NSTDRMTASS, which amyloid nucleation score is on record?
Answer: inactive

Question: Which amyloid nucleation score does the source give for NSYFLSRTLLSTSGRRTCRM here?
Answer: inactive

Question: With NSYGPRKSSGRVAPF as the substance, how does the amyloid nucleation score read?
Answer: inactive

Question: Which amyloid nucleation score does the source give for NSYQY here?
Answer: inactive

Question: Which amyloid nucleation score does the source give for NTFVDGKSRYYSYLRIVQIL here?
Answer: inactive

Question: For NTGYVVLHKDFHSLASSTKV, which amyloid nucleation score is on record?
Answer: inactive

Question: Which amyloid nucleation score does the source give for NTHKQWVRTLRWVLVSYNCC here?
Answer: inactive

Question: Which amyloid nucleation score does the source give for NTLDDDFRISPDATVYSVYW here?
Answer: inactive

Question: For NTMMA, which amyloid nucleation score is on record?
Answer: inactive

Question: Which amyloid nucleation score does the source give for NTNRLFNSLRTKLGFCFYSF here?
Answer: inactive

Question: With NVAAFGVAMPGMSV as the substance, how does the amyloid nucleation score read?
Answer: inactive

Question: Which amyloid nucleation score does the source give for NVALRAGSREG here?
Answer: inactive

Question: With NVEMLFNNSHHSTDEDAWYD as the substance, how does the amyloid nucleation score read?
Answer: inactive

Question: For NVFFIRNNQTTGRLKFWCQV, which amyloid nucleation score is on record?
Answer: 0.958 ± 0.12

Question: Which amyloid nucleation score does the source give for NVFLRNLA here?
Answer: inactive

Question: For NVLALECVRDWT, which amyloid nucleation score is on record?
Answer: inactive

Question: With NVLFLVNY as the substance, how does the amyloid nucleation score read?
Answer: 2.42 ± 0.067

Question: For NVLLCINTRYR, which amyloid nucleation score is on record?
Answer: 1.35 ± 0.077

Question: For NVRTLNSLDDLGVSFSSACT, which amyloid nucleation score is on record?
Answer: inactive

Question: With NVSPIGQISVNYGRMDCSEG as the substance, how does the amyloid nucleation score read?
Answer: inactive

Question: For NVVFV, which amyloid nucleation score is on record?
Answer: inactive

Question: Which amyloid nucleation score does the source give for NWCLVYRPVKL here?
Answer: 1.54 ± 0.1

Question: With NWENILGDSYLCVKWSL as the substance, how does the amyloid nucleation score read?
Answer: inactive
